Experimental data published in patent publication US20040138134A1.
Where no end group is shown, it is not given here.

target: natriuretic peptide receptor on C3H10T1/2 cells; assay: cell-based or functional assay

Row | % relative binding (cGMP, Biotrak EIA, peptide at 10^-6 M) [%] | Binder
1 | 100 | CFGLKLDRIGSMSGLGC (not fully specified (bridges); ends and bridges not checked) [CNP 5-22 (17-mer, cyclic domain of CNP)]

target: natriuretic peptide receptor on C3H10T1/2 cells; assay: cell-based or functional assay; remark: another data set of the same source

Row | Binder | % relative binding (cGMP, Biotrak EIA, peptide at 10^-6 M) [%]
2 | CFGLKLDRIGSMSC [CNP variant SEQ ID NO:14] | 29.9
3 | CFGLKLARIGSMSGLGC [CNP variant SEQ ID NO:7] | 49.1
4 | CHFGLKLDRIGAQSC [CNP variant SEQ ID NO:13] | 26.5
5 | CFGLKLDRAGSMSGLGC [CNP variant SEQ ID NO:9] | 11.5
6 | CFGLKLDRIGSC [CNP variant SEQ ID NO:21] | 22.7
7 | CFGLKLDRIGAQSC [CNP variant SEQ ID NO:15] | 20.6
8 | CHFGLKLDRIGSMSC [CNP variant SEQ ID NO:11] | 25.9
9 | CFGLKLDAIGSMSGLGC [CNP variant SEQ ID NO:8] | 18.4
10 | CHFGLKLDRIC [CNP variant SEQ ID NO:23] | 3.8
11 | CHFGLKLDRIGSMAC [CNP variant SEQ ID NO:12] | 21.7
12 | CFGLKLDRIGAMC (ends and bridges not checked; cysteine pairing not given here) [CNP variant SEQ ID NO:17] | 3.4
13 | GLSKGCFGLKLDRIGSMSGLGC [CNP 1-22 (native human CNP, 22-mer)] | 100
14 | CFGLKLDRIGSMSGLGC (not fully specified (bridges); ends and bridges not checked) [CNP 5-22 (17-mer, cyclic domain of CNP)] | 127

The remaining lines, values ahead:

Row | % relative binding (cGMP, Biotrak EIA, peptide at 10^-6 M) [%] | Binder
15 | 11.8 | CFGLKLDRIGSQC [CNP variant SEQ ID NO:18]
16 | 43.8 | CAGLKLDRIGSMSGLGC [CNP variant SEQ ID NO:6]
17 | 4.2 | CFGLKLDRIGC [CNP variant SEQ ID NO:22]
18 | 17.3 | CFGLKLDRIGSMC [CNP variant SEQ ID NO:16]
19 | 3.8 | CFGLKLDRIGAQC [CNP variant SEQ ID NO:19]
20 | 11.9 | CHFGLKLDRIGSC [CNP variant SEQ ID NO:20]
